The series “SEC” deals with the molecule itself. In words: SEC. Background: In gel filtration, larger molecules generally elute earlier.
The target in the next series is T25-HP0220 (NifS) (Helicobacter pylori strain 26695, UniProt O25008 2-387). As to the kind of experiment: two-hybrid.
The target in the next series is T1, T25-HP1492 (Nfu) (Helicobacter pylori strain 26695, UniProt O26025 2-89).
T1 sequence (looked up): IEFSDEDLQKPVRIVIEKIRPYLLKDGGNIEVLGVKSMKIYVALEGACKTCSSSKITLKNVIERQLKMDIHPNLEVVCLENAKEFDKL
In words: two-hybrid.

The target in the next series is T2, T25-HP0221 (NifU) (Helicobacter pylori strain 26695, UniProt O25009 2-326).
T2 sequence (looked up): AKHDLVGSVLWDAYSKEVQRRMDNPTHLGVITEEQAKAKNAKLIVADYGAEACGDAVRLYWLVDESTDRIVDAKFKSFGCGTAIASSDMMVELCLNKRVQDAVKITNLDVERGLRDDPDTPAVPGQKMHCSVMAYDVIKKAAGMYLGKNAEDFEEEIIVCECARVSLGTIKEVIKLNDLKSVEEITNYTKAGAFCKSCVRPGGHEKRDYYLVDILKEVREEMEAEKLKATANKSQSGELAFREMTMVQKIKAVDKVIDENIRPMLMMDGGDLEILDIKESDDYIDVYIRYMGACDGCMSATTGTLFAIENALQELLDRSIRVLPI
In words: two-hybrid.

A further series addresses T3, HP0221-T25 (NifU) (Helicobacter pylori strain 26695, UniProt O25009 2-326).
T3 sequence (looked up): T2 sequence (looked up)
In words: two-hybrid.

One may read the stoichiometry N as the number of molecules, sites or subunits per partner or assembly.

“And” between values parts separate entries of the source, which are not always exact repeats. Equal values may be shown once.

B1: NifS (purified recombinant) (enzyme, Helicobacter pylori strain 26695, UniProt O25008 1-387, looked up)
chain: MLQRIYLDNNATTRIDPKVKEIMDPFLRDHYGNPSSLHQFGTETHPAIAEALDKLYKGINARDIDDVIITSCATESNNWVLKGVYFDECLKKGKNHIVTTVAEHPAVRSTCNFLESLGVEVTYLPINEHGSITAEQVKEAITEKTALVSVMWANNETGLIFPIEEIGAICKEKGVLFHTDAVQAIGKIPVDVLKANADFLSFSAHKFHGPKGIGGLYIRSGVGLTPLFHGGEHMNGRRSGTLNVPYIVGMGEAMKLAVEHLDYEKEVVGKLRDKLEEALLKIPDVMVVGDRIHRVPNTTLVSVRGIEGEAMLWDLNRSNIAASTGSACASEDLEANPVMVAIGASKELAHTAIRLSLSRFNTEAEIDKTIEVFSQAAVRLRNISSSY
Turning to B1, the “stoichiometry N” value in the series “SEC” came out at 2.

B2: NifU (purified recombinant) (natural protein, Helicobacter pylori strain 26695, UniProt O25009 1-326, looked up)
chain: MAKHDLVGSVLWDAYSKEVQRRMDNPTHLGVITEEQAKAKNAKLIVADYGAEACGDAVRLYWLVDESTDRIVDAKFKSFGCGTAIASSDMMVELCLNKRVQDAVKITNLDVERGLRDDPDTPAVPGQKMHCSVMAYDVIKKAAGMYLGKNAEDFEEEIIVCECARVSLGTIKEVIKLNDLKSVEEITNYTKAGAFCKSCVRPGGHEKRDYYLVDILKEVREEMEAEKLKATANKSQSGELAFREMTMVQKIKAVDKVIDENIRPMLMMDGGDLEILDIKESDDYIDVYIRYMGACDGCMSATTGTLFAIENALQELLDRSIRVLPI
As for B2, the “stoichiometry N” value in the series “SEC” was 2.

B3: T18-HP1266 (natural protein, Helicobacter pylori strain 26695, UniProt O25856 2-844, looked up)
chain: ITMNINGKTIECQEGQSVLEAARSAGIYIPTICYLSGCSPTVACKMCMVEMDGKRVYSCNTKAKNNATILTNTPTLMDERKSIMQTYDVNHPLECGVCDKSGECELQDMTHLTGVEHQPYAVADDFKALDFWAKALYDPNLCIMCERCVTTCKDNVGENNLKATKADLHAPDKFKDSMSKDAFSVWSRKQKGIISFVGSVPCYDCGECIAVCPVGALSYKDFAYTANAWELKKIHSTCSHCSAGCLISYDVRHFDTLGEESKIFRVLNDFYHNPICGAGRFAFDVSSSPKGSANLKEAQNALKECEAVRIGGDITNEEAFLIERLRKELDFKIYNQEAYRFQQFLKVLGEIKRPSVEEIKTSHLVVTIGSSIKTENPLVRYAINNALKLNKASLIAMHPIKDNALANLCRSSFCITHEVGAEEILLGMLLKMLNIESAALKSLEDSKQNIVDEAALKALEEERKKALEQAEQGCSIGENKAENQEENKTEATTPKEENQEENKTEVKEEKIEVPTKTTYLLLEEAGINLETYEKILALLQKSNNTLLVVGEEIYSHKQAHNIAKMLRLLAQKSAIKLILIPPSANALGIASICQLSEEIFEHEKIVGIRAQGDFTINSDDRVFGKDAASKVDFILPSLNQLEGTITNIEGRVLPLKPALRFEGYDLSDIMQGFGFVEENLIECTHKLPTEAGFKAIEFDYLTNYFANDRVNHRGYLLGTSHFEKSAKECETIECEPIKPLKEKIAFNAYLKYPETQFNNATNKSENLQLKAGVYVSKAFLKKLNKEVGQNITLSKEEEELTGVLYLDESLDQEVFVISPSLLKNHSGFFREGVFDSVDLKEQA
With B3, the “growth OD595 in M63-maltose” value is 0.16 OD595 with T25-HP0220 (NifS) and 0.24 OD595 with T25-HP1492 (Nfu).

B4: T18-HP0207 (natural protein, Helicobacter pylori strain 26695, UniProt O24999 2-368, looked up)
chain: LTQEDVLNALKTIIYPNFEKDIVSFGFVKNITLHDDQLGLLIEIPSSSEETSAILRENISKAMQEKGVKALNLDIKTPPKPQAPKPTTKNLAKNIKHVVMISSGKGGVGKSTTSVNLSIALANLNQKVGLLDADVYGPNIPRMMGLQSADVIMDPSGKKLIPLKAFGVSVMSMGLLYDEGQSLIWRGPMLMRAIEQMLSDIIWGDLDVLVVDMPPGTGDAQLTLAQAVPLSAGITVTTPQIVSLDDAKRSLDMFKKLHIPIAGIVENMGSFVCEHCKKESEIFGSNSMSELLEAYHTQILAKLPLEPKVRLGGDRGEPIVISHPNSVSAKIFEKMAQDLSAFLERVKKEKLADNKDIQPTQTHACSH
Consider B4, for which the “growth OD595 in M63-maltose” value was 0.23 OD595 with T25-HP0220 (NifS), 0.14 OD595 in the series with T25-HP0221 (NifU), 0.13 OD595 in the series with HP0221-T25 (NifU) and 0.21 OD595 with T25-HP1492 (Nfu).

B5: Nfu (purified recombinant) (natural protein, Helicobacter pylori strain 26695, UniProt O26025 1-89, looked up)
chain: MIEFSDEDLQKPVRIVIEKIRPYLLKDGGNIEVLGVKSMKIYVALEGACKTCSSSKITLKNVIERQLKMDIHPNLEVVCLENAKEFDKL
As to B5, the “stoichiometry N” value in “SEC” is 4 and 2.

B6: T18-HP0220 (natural protein, Helicobacter pylori strain 26695, UniProt O25008 2-387, looked up)
chain: LQRIYLDNNATTRIDPKVKEIMDPFLRDHYGNPSSLHQFGTETHPAIAEALDKLYKGINARDIDDVIITSCATESNNWVLKGVYFDECLKKGKNHIVTTVAEHPAVRSTCNFLESLGVEVTYLPINEHGSITAEQVKEAITEKTALVSVMWANNETGLIFPIEEIGAICKEKGVLFHTDAVQAIGKIPVDVLKANADFLSFSAHKFHGPKGIGGLYIRSGVGLTPLFHGGEHMNGRRSGTLNVPYIVGMGEAMKLAVEHLDYEKEVVGKLRDKLEEALLKIPDVMVVGDRIHRVPNTTLVSVRGIEGEAMLWDLNRSNIAASTGSACASEDLEANPVMVAIGASKELAHTAIRLSLSRFNTEAEIDKTIEVFSQAAVRLRNISSSY
As for B6, the “growth OD595 in M63-maltose” value came out at 0.29 OD595 with T25-HP0220 (NifS), 0.13 OD595 with T25-HP0221 (NifU), 0.11 OD595 in the series with HP0221-T25 (NifU) and 0.22 OD595 in the series with T25-HP1492 (Nfu).

For the origin of these results see PMC5943153 (Molecular microbiology, 2018).
